Laboratory results reported in the supplement of paper PMC9876800.

Test system: peptide library, one residue held at a place counted from the S/T acceptor
Assay: relative phosphorylation of the sub-library (ratio to the mean residue at this position); higher = residue favoured
Conditions: human
How it was run: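 Relative sub-library phosphorylation is the ratio of each sub-library's signal to the mean residue at that position. The signal came from phosphorimaging of spots on streptavidin membranes, quantified by densitometry, after purified recombinant kinases reacted with biotinylated degenerate peptide sub-libraries in 384-well plates. Reactions held 50 μM peptide and 50 μM ATP spiked with γ-32P-ATP for 90 min under kinase-specific conditions.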

Chain of STK17A, construct: Full length (Q9UEE5 whole entry, looked up): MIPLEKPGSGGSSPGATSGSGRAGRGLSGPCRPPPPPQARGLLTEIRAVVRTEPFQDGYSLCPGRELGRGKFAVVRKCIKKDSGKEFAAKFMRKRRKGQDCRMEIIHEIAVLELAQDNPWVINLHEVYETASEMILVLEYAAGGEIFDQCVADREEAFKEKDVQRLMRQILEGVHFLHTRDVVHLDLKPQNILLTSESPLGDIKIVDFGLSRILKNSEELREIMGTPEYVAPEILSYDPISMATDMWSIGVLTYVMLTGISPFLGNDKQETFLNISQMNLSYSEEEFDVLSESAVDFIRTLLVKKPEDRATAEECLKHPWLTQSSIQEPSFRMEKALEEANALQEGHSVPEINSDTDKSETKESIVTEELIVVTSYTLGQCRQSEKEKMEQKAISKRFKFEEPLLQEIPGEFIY

STK17A, construct: Full length (from UniProt Q9UEE5)
relative phosphorylation
Conditions | at +1 | at +2 | at +3 | at +4 | at -1 | at -2 | at -3 | at -4 | at -5
A fixed | 0.4 | 0.562 | 0.679 | 0.808 | 0.636 | 1.04 | 0.701 | 0.927 | 0.979
D fixed | 0.954 | 0.564 | 0.686 | 0.86 | 0.85 | 0.657 | 0.799 | 1.06 | 0.922
E fixed | 0.984 | 0.612 | 1.18 | 0.917 | 0.967 | 0.597 | 0.681 | 1.09 | 0.916
F fixed | 4.75 | 0.832 | 1.05 | 0.896 | 1.11 | 0.943 | 0.802 | 0.772 | 0.876
G fixed | 0.63 | 0.444 | 0.889 | 0.868 | 0.801 | 1.2 | 0.868 | 1.23 | 1.11
H fixed | 0.502 | 1.83 | 1.12 | 1.15 | 1.16 | 1.25 | 1.02 | 1.03 | 1.06
I fixed | 0.75 | 0.709 | 1.49 | 0.742 | 0.621 | 0.491 | 0.65 | 0.586 | 0.721
K fixed | 0.498 | 1.7 | 1.08 | 1.49 | 1.23 | 1.32 | 1.28 | 1.43 | 1.63
L fixed | 0.678 | 0.732 | 0.989 | 0.713 | 1.24 | 0.648 | 0.783 | 0.62 | 0.872
M fixed | 1.41 | 0.787 | 0.984 | 0.669 | 1.19 | 0.892 | 1.13 | 0.798 | 0.837
N fixed | 0.558 | 0.93 | 0.733 | 0.988 | 1.06 | 1.05 | 0.902 | 1 | 1.06
P fixed | 0.251 | 0.332 | 0.539 | 0.952 | 0.589 | 0.673 | 0.888 | 0.979 | 0.993
Q fixed | 1.66 | 1.09 | 0.815 | 1 | 0.931 | 0.934 | 0.989 | 0.782 | 0.704
R fixed | 0.494 | 2.6 | 1.17 | 1.7 | 1.18 | 1.8 | 2.58 | 1.32 | 1.38
V fixed | 0.53 | 0.708 | 1.04 | 0.693 | 0.721 | 0.638 | 0.56 | 0.73 | 0.829
W fixed | 0.974 | 1.16 | 1.2 | 1.33 | 1.07 | 1.83 | 1.43 | 1.81 | 1.16
Y fixed | 0.972 | 1.41 | 1.37 | 1.23 | 1.64 | 1.04 | 0.945 | 0.842 | 0.947
pThr fixed | 6.24 | 3.31 | 1.2 | 1.45 | 0.813 | 0.788 | 0.9 | 0.977 | 0.971
pTyr fixed | 1.4 | 1.6 | 3.08 | 1.39 | 1.61 | 0.941 | 1.06 | 1.17 | 0.918

PKN1, construct: aa460-982 (from UniProt Q16512)
relative phosphorylation
Conditions | at +1 | at +2 | at +3 | at +4 | at -1 | at -2 | at -3 | at -4 | at -5
A fixed | 0.528 | 0.745 | 0.906 | 1 | 1.03 | 1.13 | 0.67 | 1.01 | 0.865
D fixed | 0.183 | 0.162 | 0.281 | 0.393 | 0.581 | 0.2 | 0.126 | 0.354 | 0.262
E fixed | 0.171 | 0.149 | 0.352 | 0.372 | 0.509 | 0.254 | 0.14 | 0.536 | 0.256
F fixed | 4.71 | 0.739 | 1.14 | 0.743 | 1.03 | 0.85 | 0.456 | 1.06 | 1.19
G fixed | 0.361 | 0.397 | 0.783 | 0.98 | 1 | 0.777 | 0.412 | 1.14 | 0.789
H fixed | 0.564 | 1.34 | 1.02 | 1.22 | 1.22 | 1.16 | 0.907 | 1.03 | 0.761
I fixed | 1.26 | 0.785 | 1.04 | 0.753 | 0.535 | 0.557 | 0.407 | 0.88 | 1.6
K fixed | 0.784 | 2.16 | 1.46 | 2.04 | 1.53 | 2 | 2 | 1.73 | 1.2
L fixed | 1.13 | 1.1 | 1.06 | 0.794 | 0.973 | 0.638 | 0.455 | 0.922 | 1.84
M fixed | 2.16 | 0.896 | 1.06 | 0.819 | 1.05 | 0.89 | 0.483 | 1.07 | 0.967
N fixed | 0.483 | 0.575 | 0.629 | 0.929 | 1.16 | 0.926 | 0.315 | 0.717 | 0.49
P fixed | 0.266 | 0.297 | 0.493 | 1.4 | 1.16 | 0.347 | 0.328 | 0.59 | 0.921
Q fixed | 0.62 | 0.578 | 0.736 | 0.996 | 0.947 | 1.05 | 0.585 | 0.842 | 0.643
R fixed | 0.999 | 4.44 | 2 | 1.86 | 1.51 | 3.36 | 8.17 | 2.01 | 1.61
V fixed | 0.852 | 0.749 | 1.02 | 0.678 | 0.622 | 0.781 | 0.373 | 0.991 | 1.55
W fixed | 0.889 | 0.675 | 1.5 | 1.15 | 0.9 | 1.1 | 0.58 | 0.992 | 0.926
Y fixed | 1.04 | 1.22 | 1.53 | 0.87 | 1.24 | 0.978 | 0.6 | 1.13 | 1.14
pThr fixed | 0.476 | 0.43 | 0.412 | 0.443 | 0.302 | 0.296 | 0.259 | 0.551 | 0.368
pTyr fixed | 0.314 | 0.354 | 0.567 | 0.384 | 0.388 | 0.266 | 0.215 | 0.412 | 0.514
